Legend:
[1] = molecular target: substrate-trapping Csw, Csw^C583S (Csw^CS) (Drosophila); assay: co-IP
[2] = molecular target: wild type Corkscrew (Csw^WT) (Drosophila); assay: co-IP

- fold change of the co-immunoprecipitated amount against Csw^WT [1]: 1.7 fold
- fold change of the co-immunoprecipitated amount against Draper-I [2]: 24 fold
Substance: HA-tagged Draper-II (receptor)

From publication PMC3337949
